Source: the supplement of paper PMC9112550, “Optimization of the antimicrobial peptide Bac7 by deep mutational scanning” (BMC Biology, 2022)

test system: Escherichia coli TOP10; experiment: shrunken log2 fold change of peptide-encoding DNA abundance (4.5 h post-induction vs induction); higher = less antimicrobial activity (less host growth inhibition); conditions: time post-induction: 4.5 h; library: site-saturation at positions 5, 18, 19, 20
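Note: peptides expressed intracellularly from a pBAD plasmid library in pooled LB shake-flask culture, induced with 0.3% L-arabinose, DNA abundance read by NGS, three biological replicates, DESeq2 with apeglm shrinkage.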

Sequence	shrunken log2 fold change
RRIRQRPPRLPRPRPRPAFFPRP	0.11
RRIRHRPPRLPRPRPRPPMTPRP	-0.175
RRIRHRPPRLPRPRPRPEGTPRP	-0.0282
RRIRPRPPRLPRPRPRPLEWPRP	-0.00787
RRIRVRPPRLPRPRPRPCTLPRP	-0.196
RRIRVRPPRLPRPRPRPLKGPRP	-0.211
RRIRSRPPRLPRPRPRPYCAPRP	-0.698
RRIRERPPRLPRPRPRPIMGPRP	-0.21
RRIRQRPPRLPRPRPRPTRFPRP	0.04
RRIRARPPRLPRPRPRPNWVPRP	-0.361
RRIRKRPPRLPRPRPRPEYRPRP	0.012
RRIRWRPPRLPRPRPRPLLQPRP	0.2
RRIRWRPPRLPRPRPRPQFCPRP	-0.0503
RRIRGRPPRLPRPRPRPQSSPRP	0.000815
RRIRYRPPRLPRPRPRPQDIPRP	-0.252
RRIRQRPPRLPRPRPRPWMEPRP	-3.98e-05
RRIRWRPPRLPRPRPRPDFGPRP	-0.0549
RRIRVRPPRLPRPRPRPTCYPRP	-0.118
RRIRWRPPRLPRPRPRPNRQPRP	0.175
RRIRIRPPRLPRPRPRPCIRPRP	-0.0379
RRIRKRPPRLPRPRPRPGTEPRP	0.542
RRIRYRPPRLPRPRPRPWFWPRP	-0.0261
RRIRVRPPRLPRPRPRPIFPPRP	0.199
RRIRRRPPRLPRPRPRPLTYPRP	-0.204
RRIRNRPPRLPRPRPRPTDRPRP	0.0372

Sequence	shrunken log2 fold change
RRIRQRPPRLPRPRPRPLFSPRP	-0.258
RRIRRRPPRLPRPRPRPRFTPRP	0.264
RRIRPRPPRLPRPRPRPNKLPRP	0.448
RRIRKRPPRLPRPRPRPWQVPRP	-0.0062
RRIRCRPPRLPRPRPRPQGMPRP	0.00583
RRIRFRPPRLPRPRPRPQSTPRP	-0.249
RRIRVRPPRLPRPRPRPIVIPRP	0.0265
RRIRLRPPRLPRPRPRPDNTPRP	-0.386
RRIRARPPRLPRPRPRPAVWPRP	0.64
RRIRYRPPRLPRPRPRPPIEPRP	-0.154
RRIRYRPPRLPRPRPRPPQGPRP	-0.0838
RRIRSRPPRLPRPRPRPNEYPRP	-1.02
RRIRRRPPRLPRPRPRPNLQPRP	-0.07
RRIRIRPPRLPRPRPRPVASPRP	-0.14
RRIRWRPPRLPRPRPRPGYAPRP	0.38
RRIRMRPPRLPRPRPRPIATPRP	-0.0165
RRIRKRPPRLPRPRPRPVNLPRP	-0.0889
RRIRRRPPRLPRPRPRPLIGPRP	-0.0159
RRIRLRPPRLPRPRPRPEDRPRP	-0.0181
RRIRVRPPRLPRPRPRPFFEPRP	0.142
RRIRCRPPRLPRPRPRPDIRPRP	0.121
RRIRRRPPRLPRPRPRPRFYPRP	-0.237
RRIRKRPPRLPRPRPRPDYHPRP	-0.244
RRIRIRPPRLPRPRPRPTQEPRP	0.0113
RRIRRRPPRLPRPRPRPINGPRP	-0.0719

Sequence	shrunken log2 fold change
RRIRFRPPRLPRPRPRPHRTPRP	-0.18
RRIRMRPPRLPRPRPRPLTSPRP	0.0851
RRIRFRPPRLPRPRPRPRTYPRP	-0.794
RRIRTRPPRLPRPRPRPCDHPRP	-0.0753
RRIRNRPPRLPRPRPRPTHFPRP	-0.659
RRIRYRPPRLPRPRPRPHDIPRP	-0.00174
RRIRARPPRLPRPRPRPYHQPRP	-0.885
RRIRIRPPRLPRPRPRPRCCPRP	-0.181
RRIRARPPRLPRPRPRPILVPRP	-0.122
RRIRARPPRLPRPRPRPKMFPRP	-0.0487
RRIRVRPPRLPRPRPRPNRFPRP	0.11
RRIRERPPRLPRPRPRPDVWPRP	0.0561
RRIRIRPPRLPRPRPRPMRTPRP	0.0509
RRIRYRPPRLPRPRPRPLWIPRP	-0.103
RRIRWRPPRLPRPRPRPRWNPRP	-0.0693
RRIRCRPPRLPRPRPRPRHRPRP	-0.466
RRIRCRPPRLPRPRPRPHIEPRP	-0.856
RRIRTRPPRLPRPRPRPRLDPRP	-0.0828
RRIRERPPRLPRPRPRPGKNPRP	-0.212
RRIRKRPPRLPRPRPRPVVIPRP	-0.112
RRIRGRPPRLPRPRPRPHGEPRP	0.164
RRIRWRPPRLPRPRPRPTSCPRP	0.581
RRIRSRPPRLPRPRPRPQVTPRP	-0.196
RRIRVRPPRLPRPRPRPASDPRP	0.347
RRIRNRPPRLPRPRPRPAQCPRP	-0.0739

Sequence	shrunken log2 fold change
RRIRWRPPRLPRPRPRPMFVPRP	-0.51
RRIRQRPPRLPRPRPRPGVSPRP	-0.0696
RRIRCRPPRLPRPRPRPAPEPRP	0.766
RRIRQRPPRLPRPRPRPPTAPRP	0.504
RRIRGRPPRLPRPRPRPCTWPRP	0.228
RRIRERPPRLPRPRPRPAGHPRP	0.0849
RRIRIRPPRLPRPRPRPRNFPRP	-0.283
RRIRTRPPRLPRPRPRPEWKPRP	-0.076
RRIRVRPPRLPRPRPRPKQLPRP	0.0267
RRIRPRPPRLPRPRPRPWQCPRP	-0.0562
RRIRKRPPRLPRPRPRPYAQPRP	-0.00925
RRIRFRPPRLPRPRPRPKGPPRP	0.0269
RRIRQRPPRLPRPRPRPTDGPRP	0.178
RRIRTRPPRLPRPRPRPFGSPRP	0.0169
RRIRGRPPRLPRPRPRPIKYPRP	0.00555
RRIRARPPRLPRPRPRPRSKPRP	0.374
RRIRWRPPRLPRPRPRPQEAPRP	-0.00482
RRIRQRPPRLPRPRPRPKLWPRP	-0.0821
RRIRIRPPRLPRPRPRPMIYPRP	-0.205
RRIRPRPPRLPRPRPRPEKMPRP	0.742
RRIRTRPPRLPRPRPRPRDMPRP	0.161
RRIRLRPPRLPRPRPRPGENPRP	-0.00192
RRIRQRPPRLPRPRPRPVFKPRP	-0.0447
RRIRCRPPRLPRPRPRPINAPRP	0.695
RRIRTRPPRLPRPRPRPAFHPRP	0.0779

Sequence	shrunken log2 fold change
RRIRIRPPRLPRPRPRPMECPRP	-0.153
RRIRHRPPRLPRPRPRPVFYPRP	-0.751
RRIRKRPPRLPRPRPRPPADPRP	0.563
RRIRDRPPRLPRPRPRPNQAPRP	-0.0261
RRIRKRPPRLPRPRPRPCWKPRP	0.0714
RRIRQRPPRLPRPRPRPVDDPRP	-0.0578
RRIRPRPPRLPRPRPRPTIHPRP	-0.428
RRIRKRPPRLPRPRPRPHLMPRP	-0.129
RRIRYRPPRLPRPRPRPLNEPRP	-0.0438
RRIRMRPPRLPRPRPRPKRAPRP	2.44
RRIRTRPPRLPRPRPRPGKEPRP	-0.00507
RRIRMRPPRLPRPRPRPLVRPRP	0.51
RRIRYRPPRLPRPRPRPVVDPRP	-0.0233
RRIRQRPPRLPRPRPRPACMPRP	-0.294
RRIRFRPPRLPRPRPRPYFEPRP	-0.617
RRIRGRPPRLPRPRPRPYMGPRP	-0.00228
RRIRSRPPRLPRPRPRPTEEPRP	0.234
RRIRNRPPRLPRPRPRPDYNPRP	-0.782
RRIRERPPRLPRPRPRPMYTPRP	-0.469
RRIRGRPPRLPRPRPRPAPSPRP	0.806
RRIRKRPPRLPRPRPRPMVNPRP	1.55
RRIRVRPPRLPRPRPRPWLQPRP	-0.0274
RRIRWRPPRLPRPRPRPVWKPRP	0.0259
RRIRNRPPRLPRPRPRPKEGPRP	-0.0345
RRIRMRPPRLPRPRPRPTYDPRP	0.473

Sequence	shrunken log2 fold change
RRIRQRPPRLPRPRPRPSGAPRP	0.054
RRIRARPPRLPRPRPRPSQSPRP	0.0538
RRIRCRPPRLPRPRPRPACYPRP	0.0371
RRIRHRPPRLPRPRPRPMPIPRP	0.113
RRIRERPPRLPRPRPRPQQIPRP	-0.384
RRIRVRPPRLPRPRPRPYMGPRP	-0.895
RRIRKRPPRLPRPRPRPTMCPRP	0.00679
RRIRIRPPRLPRPRPRPVKGPRP	-0.0688
RRIRRRPPRLPRPRPRPFCWPRP	0.45
RRIRRRPPRLPRPRPRPAWPPRP	0.446
RRIRDRPPRLPRPRPRPFGDPRP	-0.0062
RRIRGRPPRLPRPRPRPKGSPRP	1.03
RRIRHRPPRLPRPRPRPMQWPRP	0.00884
RRIRERPPRLPRPRPRPATFPRP	-0.177
RRIRVRPPRLPRPRPRPQNNPRP	-0.66
RRIRQRPPRLPRPRPRPFVQPRP	-0.0936
RRIRLRPPRLPRPRPRPMPNPRP	-0.0177
RRIRLRPPRLPRPRPRPDNCPRP	-0.0891
RRIRNRPPRLPRPRPRPSVPPRP	-0.344
RRIRNRPPRLPRPRPRPQWRPRP	0.179
RRIRARPPRLPRPRPRPLITPRP	0.305
RRIRRRPPRLPRPRPRPWTDPRP	-0.131
RRIRIRPPRLPRPRPRPNHLPRP	-0.844
RRIRPRPPRLPRPRPRPAPQPRP	0.461
RRIRKRPPRLPRPRPRPFTQPRP	-0.332
